Series [1] concerns the molecule itself. In words: AUC.
Series [2] deals with the molecule itself. In words: AUC. This is another data set of the same source.
For series [3], the target named is T1, DnaBN, DnaB(1-300) (Bacillus subtilis, UniProt P07908 1-300).
T1 sequence: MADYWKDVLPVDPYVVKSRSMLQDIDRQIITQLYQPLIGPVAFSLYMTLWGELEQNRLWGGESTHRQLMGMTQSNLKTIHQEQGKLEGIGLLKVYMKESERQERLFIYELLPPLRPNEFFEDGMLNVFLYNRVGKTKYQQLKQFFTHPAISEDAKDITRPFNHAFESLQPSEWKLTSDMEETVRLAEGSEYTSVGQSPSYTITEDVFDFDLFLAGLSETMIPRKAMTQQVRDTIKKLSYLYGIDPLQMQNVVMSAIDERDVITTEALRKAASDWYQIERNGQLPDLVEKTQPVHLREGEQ
In words: EMSA.

The target of series [4] is T2, DnaB (native) (Bacillus subtilis, UniProt P07908 1-472).
T2 sequence: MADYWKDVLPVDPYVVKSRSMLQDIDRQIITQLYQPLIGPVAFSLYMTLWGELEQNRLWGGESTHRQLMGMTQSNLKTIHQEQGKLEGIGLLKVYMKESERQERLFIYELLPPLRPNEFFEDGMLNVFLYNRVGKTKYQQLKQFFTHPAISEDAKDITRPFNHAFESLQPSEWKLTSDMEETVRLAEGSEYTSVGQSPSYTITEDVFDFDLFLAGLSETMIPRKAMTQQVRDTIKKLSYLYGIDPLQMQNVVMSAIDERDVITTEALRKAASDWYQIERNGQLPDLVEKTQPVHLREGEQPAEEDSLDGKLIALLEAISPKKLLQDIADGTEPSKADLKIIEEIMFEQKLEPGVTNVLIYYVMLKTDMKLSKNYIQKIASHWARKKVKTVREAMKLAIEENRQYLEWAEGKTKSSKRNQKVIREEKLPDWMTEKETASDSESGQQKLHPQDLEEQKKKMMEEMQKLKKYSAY
In words: EMSA. (In general: Mobility shift assays separate free from complexed probe on a gel.)

Series [5] concerns the target T1, DnaBN, DnaB(1-300). In words: EMSA. The source holds these as a separate data set.
Series [6] deals with T2, DnaB (native). In words: EMSA. This is another data set of the same source.
For series [7], the target named is T1, DnaBN, DnaB(1-300). In words: EMSA. This is another data set of the same source.

Like-named read-outs stand apart in the source and are kept apart here.

B1: DnaB(1-428), C-terminally truncated DnaB (domain or fragment, B. subtilis, UniProt P07908 1-428, looked up)
chain: MADYWKDVLPVDPYVVKSRSMLQDIDRQIITQLYQPLIGPVAFSLYMTLWGELEQNRLWGGESTHRQLMGMTQSNLKTIHQEQGKLEGIGLLKVYMKESERQERLFIYELLPPLRPNEFFEDGMLNVFLYNRVGKTKYQQLKQFFTHPAISEDAKDITRPFNHAFESLQPSEWKLTSDMEETVRLAEGSEYTSVGQSPSYTITEDVFDFDLFLAGLSETMIPRKAMTQQVRDTIKKLSYLYGIDPLQMQNVVMSAIDERDVITTEALRKAASDWYQIERNGQLPDLVEKTQPVHLREGEQPAEEDSLDGKLIALLEAISPKKLLQDIADGTEPSKADLKIIEEIMFEQKLEPGVTNVLIYYVMLKTDMKLSKNYIQKIASHWARKKVKTVREAMKLAIEENRQYLEWAEGKTKSSKRNQKVIREEKLP
The stoichiometry N is a count of units in the complex or per binding partner. B1: the “stoichiometry N” value in “AUC [1]” amounted to 4.

B2: DnaBN, DnaB residues 1-300 (N-terminal domain plus the central domain) (domain or fragment, B. subtilis, UniProt P07908 1-300, looked up)
chain: MADYWKDVLPVDPYVVKSRSMLQDIDRQIITQLYQPLIGPVAFSLYMTLWGELEQNRLWGGESTHRQLMGMTQSNLKTIHQEQGKLEGIGLLKVYMKESERQERLFIYELLPPLRPNEFFEDGMLNVFLYNRVGKTKYQQLKQFFTHPAISEDAKDITRPFNHAFESLQPSEWKLTSDMEETVRLAEGSEYTSVGQSPSYTITEDVFDFDLFLAGLSETMIPRKAMTQQVRDTIKKLSYLYGIDPLQMQNVVMSAIDERDVITTEALRKAASDWYQIERNGQLPDLVEKTQPVHLREGEQ
As a reminder, the Kd is the constant that tells how readily two partners part at equilibrium. For B2, in “AUC [2]”, the Kd came out at 500 nM and the “stoichiometry N” value amounted to 4.

B3: dT135 (ssDNA)
DNA: TTTTTTTTTTTTTTTTTTTTTTTTTTTTTTTTTTTTTTTTTTTTTTTTTTTTTTTTTTTTTTTTTTTTTTTTTTTTTTTTTTTTTTTTTTTTTTTTTTTTTTTTTTTTTTTTTTTTTTTTTTTTTTTTTTTTTTT
B3: the binding result with DnaBN, DnaB(1-300) [3] is listed as “binds”; with DnaB (native) [4], “binds”.

B4: DnaB(1-365), C-terminally truncated DnaB (domain or fragment, B. subtilis, UniProt P07908 1-365, looked up)
chain: MADYWKDVLPVDPYVVKSRSMLQDIDRQIITQLYQPLIGPVAFSLYMTLWGELEQNRLWGGESTHRQLMGMTQSNLKTIHQEQGKLEGIGLLKVYMKESERQERLFIYELLPPLRPNEFFEDGMLNVFLYNRVGKTKYQQLKQFFTHPAISEDAKDITRPFNHAFESLQPSEWKLTSDMEETVRLAEGSEYTSVGQSPSYTITEDVFDFDLFLAGLSETMIPRKAMTQQVRDTIKKLSYLYGIDPLQMQNVVMSAIDERDVITTEALRKAASDWYQIERNGQLPDLVEKTQPVHLREGEQPAEEDSLDGKLIALLEAISPKKLLQDIADGTEPSKADLKIIEEIMFEQKLEPGVTNVLIYYVMLK
As to B4, in the series “AUC [1]”, the “stoichiometry N” value was 4.

B5: dT90 (ssDNA)
DNA: TTTTTTTTTTTTTTTTTTTTTTTTTTTTTTTTTTTTTTTTTTTTTTTTTTTTTTTTTTTTTTTTTTTTTTTTTTTTTTTTTTTTTTTTTT
For B5, the binding result in the series with DnaBN, DnaB(1-300) [5] was “binds”; in the series with DnaB (native) [4], “binds”.
Regarding TTTTTTTTTTTTTTTTTTTTTTTTTTTTTTTTTTTTTTTTTTTTT (ssDNA) [dT45], the binding result with DnaB (native) [6] is listed as “binds”; with DnaBN, DnaB(1-300) [7], “binds”.

These data come from article PMC2874997 (Nucleic Acids Research, 2010).
